Experimental data reported in the nanobody polyreactivity screen of Harvey et al. (2022).

Assay: yeast display, Sf9 membrane polyspecificity reagent, FACS + sequencing; frameworks hold sequencing errors
Method in brief: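 Synthetic nanobody libraries on Saccharomyces cerevisiae BJ5465 were galactose-induced for 36–48 hours, stained 1 hour at 4 °C with 10% biotinylated, detergent-solubilized Sf9 membrane reagent and enriched on streptavidin microbeads. FACS then separated cells into low and high (top ~1%) gates by anti-HA (expression) and streptavidin (reagent binding) fluorescence. Genes were colony-PCR amplified, MiSeq 2 × 250 sequenced and CDR-length filtered. A clone's polyreactivity label is that of its gate of origin.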

**Q.** For “QVQLAESGGALVQAGCSLRLSCSASGYTSAKNVMGWYIQAPGKERELVAAISRSGGRTYYADSVKGRFTISRDNAKNSVYLQMNSLKPEDTAVYYCAARSATNHADDYYYWGQGTQVTVSS”, which “polyreactivity (PSR sort gate)” value is on record?
**A.** high polyreactivity

**Q.** Which “polyreactivity (PSR sort gate)” value does the source give for “QVQLAESGGGLVQAGGSLRLSCAASGSTFVSYAMGWYRQAPGKERELVAAIDWSGGNTDYADSVKGRFTISRDNAKNTVYLQMNSLKPEDTAVYYCNADSWPRRGYDYWGQGTQVTVSS” here?
**A.** low polyreactivity

**Q.** With “QVQLAESGGGLVQAGGSLRLSCAASGSTFVWYAMGWYRQAPGKEWELVAVIDWSGGSTSYADSVKGRFTISRDNAKNTVYFQMNSLKPEDTAVYYCAADYGHYYGLYYWGQGTQVTVSS” as the sequence, how does the “polyreactivity (PSR sort gate)” value read?
**A.** low polyreactivity

**Q.** With “QVQLDESGGGLVQAGGSLRLRCAASGFIFVSYAMGWYRQAPGKERELVAAISRGGGSTYYADSVKGRFTISRDNAKNTVYLQMNSLKPEDTAVYYCAAGRFYIDDYWGQGTQVTVSS” as the sequence, how does the “polyreactivity (PSR sort gate)” value read?
**A.** high polyreactivity

**Q.** Which “polyreactivity (PSR sort gate)” value does the source give for “QVQLEDSGGGLVQAGGSLLLSCPASGRIRYGMGWYRQAPGKERELVATITRGGSTNYADSVKGRFTISRDNAKNTVFLKMISLKPEDTAVYYCNAGSSWYYWRGYAYDYWGQGTQVSVSS” here?
**A.** high polyreactivity

**Q.** With “QVQLEDSGGGLVQAGGSLRLICAASGSIFGSYAMGWYRHAPGKERELVAAINSGGSTNYADSVKGRFTISRDNAKNTVYLQMNSLKPEDTAVYYCAARLYSNEYRYDYWGQGTQVTVSS” as the sequence, how does the “polyreactivity (PSR sort gate)” value read?
**A.** high polyreactivity

**Q.** With “QVQLEDSGGGLVQAGGSLRLICAASGSIFGYYAMGWDRQAPGKERELVAAIDSGGSTYYADSVKGRFTISRDNAKNTVYLQMNSLKPEDTAVYYCAAGVSSFSPYDSWGQGTQVTVSS” as the sequence, how does the “polyreactivity (PSR sort gate)” value read?
**A.** low polyreactivity

**Q.** Which “polyreactivity (PSR sort gate)” value does the source give for “QVQLEDSGGGLVQAGGSLRLSCAASGFIFLPNAMGWYRQAPGKERELVAAISTSDGSTYYADSVKGRFTISRDNAKNTVYLQMNSLKPEDTAVYYCAASYQFYRKYAYDYWGQGTQVTVSS” here?
**A.** low polyreactivity

**Q.** For “QVQLEDSGGGLVQAGGSLRLSCAASGFIFRYYAMGWYRKATGKERELVAAIDYSGGSTNYADSVKGRFTISRDNAKNTVYLQMNSLKPEDTAVYYCKAVHETTWQLYDYWGQGTQVTVSS”, which “polyreactivity (PSR sort gate)” value is on record?
**A.** low polyreactivity

**Q.** With “QVQLEDSGGGLVQAGGSLRLSCAASGGIFLTYTMGWYRQAPGKEREFVAAIRSSSGRTYYADSVKGRFTISRDNAKNTVYLQMISLKPEDTSVYYCNAKYYGYRVGKYYPFGYWGQGTQVTVSS” as the sequence, how does the “polyreactivity (PSR sort gate)” value read?
**A.** high polyreactivity

**Q.** Which “polyreactivity (PSR sort gate)” value does the source give for “QVQLEDSGGGLVQAGGSLRLSCAASGIIFYSYAMGWYRQAPVKERELVATISFSGDNTYYADSVKGRFTISRDNAKNTVYLQMNSLKPEDTAVYYCAAASTYGGYYYSVSFEYWGQGTQVTVSS” here?
**A.** low polyreactivity

**Q.** Which “polyreactivity (PSR sort gate)” value does the source give for “QVQLEDSGGGLVQAGGSLRLSCAASGLTFYGYTMGWYRQAPGKERELVAAISWSGGNTYYADSVKGRFTISRDNAKNTVYLQMNSLKPEDTAVYYCAAEHWTYDWVDYWGQGTQVTVSS” here?
**A.** low polyreactivity

**Q.** For “QVQLEDSGGGLVQAGGSLRLSCAASGRTFRSNVMGWYRQAPGKERELVAAISKRGGSTFSADSVKGRFTISRDNAKNTVYLQMNSLKPEDTEVYYCAKDTPVYDYGTVYPDDYWGQGTQVTVSS”, which “polyreactivity (PSR sort gate)” value is on record?
**A.** high polyreactivity

**Q.** For “QVQLEDSGGGLVQAGGSLRLSCAASGSIFILNTMGWYREAPGKERELVAGISYSGSTYYADSVKGRFTISRDNAKNTVYLQMNSLKPEDTAVYYCAADYGAAWYNDGYYYWGQGTQVTVSS”, which “polyreactivity (PSR sort gate)” value is on record?
**A.** low polyreactivity

**Q.** With “QVQLEDSGGGLVQAGGSLRLSCAASGSTFYTYAMGWYRQAPGKERELVAAITFIDGSTYYADSVKGRFTISRDNAKNTVYLQMNSLKPEDTAVYYCAADDAKFRYRDDYWGQGTQVTVSS” as the sequence, how does the “polyreactivity (PSR sort gate)” value read?
**A.** low polyreactivity

**Q.** Which “polyreactivity (PSR sort gate)” value does the source give for “QVQLEEAGGGLVQAGGSLRLSCAASGRTFFENAMGWYRQAPGKEREFVAAISYNGGSTYYADSVKGRFTISRDNAKNTVYLQMNSMKPDDTAVYYCAADPNYGYDYWGQGTQVTVSS” here?
**A.** low polyreactivity

**Q.** With “QVQLEESAGGLVQAGGSHRLSCADTGRTFRWYAMGWYRQAPGKERELVAAISRNGGSTSFADSVKGRFTISRDNAKKTVYLQLNSLKPEDTAVYYCAAGSRVQWYGYDYWGQGTQVTVSS” as the sequence, how does the “polyreactivity (PSR sort gate)” value read?
**A.** high polyreactivity

**Q.** Which “polyreactivity (PSR sort gate)” value does the source give for “QVQLEESAGGLVQAGGSLRLSCAASGFTLYYYSMGWYRKAPGKERELVAAIAVSGTSTYYADSVKGRFTISRDNAKNTVYLQMNSLKPEDTAVYYCNKVFRVYQTFKAWGRDYWGQGTQVTVSS” here?
**A.** high polyreactivity

**Q.** Which “polyreactivity (PSR sort gate)” value does the source give for “QVQLEESAGGLVQAGGSLRLSCAASGSSFTSYAMGWYRQAPGKERELVAAITSGGSTTYADSVKGRFTISRDNEKNTVYLQMNSLKPEDTAVYYCNAKWYGYLTRDAYRYRYTYDYWGQGTQVTVSS” here?
**A.** low polyreactivity

**Q.** With “QVQLEESAGGLVQAGGSLRLSCAASGSTFYLNAMGSYRQAPGKERELVAAITVSGGSTYYADSVKGRFTISRDNAKNTVYLQMNSLKPEDNAVYYCARELLSPTYQRWYYYWGQGSQVTVSS” as the sequence, how does the “polyreactivity (PSR sort gate)” value read?
**A.** low polyreactivity

**Q.** Which “polyreactivity (PSR sort gate)” value does the source give for “QVQLEESGAGLVQAGGSLRLSCAASGRIFTVYAMGWYRHAPGKEREFVAAIRSSGGRTYYADSVKGRFTISRDNEKNTVYLQMNSLNPEDTAVYYCAASVTGPSGADYYYWGQGTQVTVSS” here?
**A.** high polyreactivity

**Q.** Which “polyreactivity (PSR sort gate)” value does the source give for “QVQLEESGARIVQAGGSLRLSCAASGITLAGYVMGWYRQAPGKERELVADISSSGDSTYYADSVNGRFTISRDNAKNTVYLQMNSLKPEDTAVYYCAAEEIIPLIYKGYPFDYWGQATQVTVSS” here?
**A.** low polyreactivity
